Assay: soluble on expression in E. coli; label from the status in PepcDB or PDB records

| Sequence | soluble on expression in E. coli |
| --- | --- |
| AAASFGQTKIPRGNGPYSVGCTDLMFDHTNKGTFLRLYYPSQDNDRLDTLWIPNKEYFWGLSKFLGTHWLMGNILRLLFGSMTTPANWNSPLRPGEKYPLVVFSHGLGAFRTLYSAIGIDLASHGFIVAAVEHRDRSASATYYFKDQSAAEIGDKSWLYLRTLKQEEETHIRNEQVRQRAKECSQALSLILDIDHGKPVKNALDLKFDMEQLKDSIDREKIAVIGHSFGGATVIQTLSEDQRFRCGIALDAWMFPLGDEVYSRIPQPLFFINSEYFQYPANIIKMKKCYSPDKERKMITIRGSVHQNFADFTFATGKIIGHMLKLKGDIDSNVAIDLSNKASLAFLQKHLGLHKDFDQWDCLIEGDDENLIPGTNINTTNQHI | soluble |
| AALAEIVAQLNIYQSQVELIQQQMEAVRATISELEILEKTLSDIQGKDGSETLVPVGAGSFIKAELKDTSEVIMSVGAGVAIKKNFEDAMESIKSQKNELESTLQKMGENLRAITDIMMKLSPQAEELLAAVA | soluble |
| AARQMEALNRGLVAVKTDGGIFVSWRFLGTENASVLFNVYRDGQKLNAAPVKTTNYVDKNGSAGSTYTVRAVVNGTEQPASEKASVWAQPYHSVPLDKPAGGTTPKGESYTYSANDASVGDVDGDGQYELILKWDPSNSKDNSQDGYTGDVLIDAYKLDGTKLWRINLGKNIRAGAHYTQFMVYDLDGDGKAEVAMKTADGTKDGTGKVIGNANADYRNEQGRVLSGPEYLTVFQGSTGKELVTANFEPARGNVSDWGDSYGNRVDRFLAGIAYLDGQRPSLIMTRGYYAKTMLVAYNFRDGKLSKLWTLDSSKSGNEAFAGQGNHNLSIADVDGDGKDEIIFGSMAVDHDGKGMYSTGLGHGDALHTGDLDPGRPGLEVFQVHEDKNAKYGLSFRDAATGKILWGVYAGKDVGRGMAADIDPRYPGQEVWANGSLYSAKGVKIGSGVPSSTNFGIWWDGDLLREQLDSNRIDKWDYQNGVSKNMLTASGAAANNGTKATPTLQADLLGDWREEVVWRTEDSSALRIYTTTIPTEHRLYTLMHDPVYRLGIAWQNIAYNQPPHTSFFLGDGMAEQPKPNMYTPLEHHHHHH | soluble |
| ACRISPGQINQVRPKLPLLKILHAAGAQGEMFTVKEVMHYLGQYIMVKQLYDQQEQHMVYCGGDLLGELLGRQSFSVKDPSPLYDMLRKNLVTLATATTDA | soluble |
| ADPLAATTVADLPVYNGEDVWQRVAQRCRLVDGQGVNERIARQRDWLLNNRGFLTGASKRATPYLHFIVERLDERNMPLELALLPMIESSYNPLANSPAAAAGLWQFIPSTGRQFNLNQSATYDARRDVVASSKAAMDYLTRLHDQFNNDWLLALAAYNAGEGTVARAIDANRRRGMPVDYWHLNLPRETQDYVPRLLALSLVVRNPGAYGVQLTPVANMPYFDVVELNHTVDLTQLAATTGVDEAQLLRLNPAFLRKKTPDGPGRLLIPKTHTQVLTAGIERITGESPTTAVIPASPGKRVIEREPSSQVAERAPTPEPLQAAGREQTAGLMQVLEREPAPESVQPVRREPQPKVVQVARQEPLPGPAQPVQAAEQVTVSDPIQPARQASSQATNERSLLDRRIQKRLYIDDRSSPRKRDEIAYRDEPRELPNGPRVVVYASDPRQ | not soluble |
| ADPVMLEIFNNRFMSVAEQMGYTLQNTAHSVNIKERLDFSCAIFDGKGNLIANAPHIPVHLGSMGECVKYLIRARSVEMTAGDVYLINSPYHGGTHLPDLTVVTPMSGNLGEILFYLASRGHHADVGGVTPGSMPPDSRTIEEEGVLSEGMKIVEQGRFLEEKLRLWLGSGKYPARNPDQNVADIRAQVAANEKGLQELHRMVEEFSLETVEAYMGHVQDNAEEAVRRVIDRLEDGEFTYPLDDGNAIKVKVKIDRENRNAKIDFSGTSSQLPSNFNAPASVCLAAVLYAFRTLVKSDIPLNAGCLRPLEIIIPEGSMLKPEPPASVVAGNVETSQYIVDAIFGALGSLAASQGTMNNFTFGNADFQYYETICGGSGAGPGFSGTDAVHTHMTNSRITDPEVLETRFPVLLEEFSIRQGSGGEGEFRGGNGVVRKFRFLKDMDAAILSSHRKFPPFGLKGGMPGKCGKNTLIRRDGSVIEAGGKAELKLKSEDVFVIETPGGGGYGRPENFRPEK | not soluble |
| AEEPTGVFLKKPDSVSVETGKDAVVVAKVNGKELPDKPTIKWFKGKWLELGSKSGARFSFKESHNSASNVYTVELHIGKVVLGDRGYYRLEVKAKDTCDSCGFNIDVEAPR | soluble |
| AELTCTDVSGLTAEEIQMRESLQYTDHSPYPDKTCANCQLYVPAESPDQCGGCQLIKGPIHPNGYCTSWVQKAT | soluble |
| AEQDMYLLRQSFDKYKTVSAGVPWFSALFGRDSLITASQTLMLNPEIAKETLMLLAAYQGKHEDEWREEAPGKILHELRLGEMARCQEIPHTPYYGTVDATPLWLMLYSEYYSWTHDRETLEQLWPHALAAMDWIDRNMQPSGYLTYHRKSKRGLDNQGWKDSGDCIVDRKGDLANGSIALSEVQAYVYAAKTRLAEIARMKKRLDLFERWQEEARSLKERFNQDFWIEDQDFCALALDGAGKQVDSITSNPGHCLLLGIFTPERAYSVAERLRAPDMFNGWGIRTLSSLSPAYNPMGYHIGSVWPHDNSLIAMGLRSLGLIDQALEIFQGLLDMTSQQPYQRPPELFCGYERNGDRSPVQYPVACTPQAWATGSIFQ | not soluble |
| AESGFRQHITANGESGFKAEPDRYHLYLSYACPWACRTLIMRKLKGLEKIISVSFSDPVMGKNGWSYGESGNETADHINHIHYLKELYLVARKDYTGRVTVPVLWDKKKKTIVNNESSEIMRMLNSEFNAFSSTDHDYYPKQWRQKIDEINQLVYENINN | not soluble |
| AESLSGLSLKLVKKEPRQLELTWAGSRPRNPGGNLSYELHVLNQDEEWHQMVLEPRVLLTKLQPDTTYIVRVRTLTPLGPGPFSPDHEFRTSPP | soluble |
| AFYYLSNFERALAWLAERYDDVLDAGEHAFVGAFGALPRASRALLVRMLMRKGPMFRASKLAYDEIGCPLAAAAPLVALGWIDPEPPLSLDALFALATKPELRDAFPDAPASGAVRKADWLDALRARHDGERPWAQWLPSIDDRVLRVTAAVDALCSRLRLMFFGNLHQDWSEFVLADLGLLQYETVAFAPSSRAFQRRDDVDAYLRLHACRELLEVWPADAPLAPLVEAAAAVDCGNAWLAMRRAKLTFSIGQACERRADWDGALAAYASSAWPGSRQRRVRVLERCERFDTALALADEAARAPENEAEAQQIARMLPRLRRRVGLPAGRAARAREIPRDSLELAHPGVPYPVEYVARDHLSRADAPVFYVENALINSLFGLLCWEPVFAAVPGAFFHPFQRGPADLHAPDFRARRAAQFDACLAQLDGTQYRDTIRRHYARKRGVQSPFVFWGALDETLLEHALACLPAEHLRLWFERLLDDVRGNRSGLPDLVRFWPAERRYELIEVKGPGDRLQDNQIRWLDYCVRHRMPVRVIDVRWSGDAQASSQDEGAL | not soluble |
| AGVNDDMPLKECYRTMWLNIWNLAGSNLNAISNRVQYDSLPCTTRNKTWELERKMFAQVDRLFNQGKEEGVFKPLDNEVLSGLSFEASVALARKHALGFYQLDDDALEAAIEASWDAIIKH | not soluble |
| AHHHHHHASAKWVCKICGYIYDEDAGDPDNGISPGTKFEELPDDWVCPICGAPKSEFEKLEDGSFLPYLSSPYPLYLINLMLMECPPDIYSFSTQNSNNQLKGLFMFKKKEYDRWMVEAKRTLASAYSDLREGYYEWASFKAQQAAELAVKAILRGLSFAPIGHSITKLLRELAENNIKGPKKILYFAMKLDRNYIALRYPDAYPEGPH | soluble |
| AHHHHHHGSEKLEKTVDMNIQQMINLSVLELVKLGLKYGIFKAVSKKISYIDLLNQVDVPNKPLLKKLIDHLKLLGIIEETPTHLLLNSFSYEIRFPKEEHMYLLPDWIPSFEEIYRMVDFALITPNHPHVLMDFDKDADFWDLRLSSTFHEAYRILIAKLGEIGEGSRVLDIGCGSASPAYFGKLVGEEGEYVGVDYSPALLEIAKNRTEGLPVKLKEMDASLIKPKNKYDVAIMSFVLEYIENRRSALRNALDSLESGGKLIIVDAFKDEFRNVEALEFFEGLNSAFREYPSKKYIKEVILDEGFEVKFGDYGKAILLIEKL | soluble |
| AHHHHHHGSKIKRKIYWTKEFDSSHLLDLPYESKCKRIHGHTYRIEIEIYGDINEQGMIFDFNHLSDLIKELDHKIIVSKNWIEEREEFIVVKKNQKTLEIPRSEVVVIDKPNVTAEYLAEWFVEKILEKADKNIYEIKVRVWEDPRSYAEVTLELQGS | soluble |
| AHHHHHHGSKKFRFFVSGMPGVGKTTLAKRIADEIKREGFKVGGIITQEIRSGARRSGFRVIALDTGEIGRLAYVGQGYPRLGRYVIDVESFEKVAIPAISRALREGDLIVIDEIGPMEFKSNEFLKALGLVLRSEKPLLATVHRRFVERYRPLGEYYWLTPENREAVFSEILVKIKELLRENENAGNKAQD | not soluble |
| AHHHHHHGSKNLYLPITIDHIARVEGKGGVEIIIGDDGVKEVKLNIIEGPRFFEAITIGKKLEEALAIYPRICSFCSAAHKLTALEAAEKAVGFVPREEIQALREVLYIGDMIESHALHLYLLVLPDYRGYSSPLKMVNEYKREIEIALKLKNLGTWMMDILGSRAIHQENAVLGGFGKLPEKSVLEKMKAELREALPLAEYTFELFAKLEQYSEVEGPITHLAVKPRGDAYGIYGDYIKASDGEEFPSEKYRDYIKEFVVEHSFAKHSHYKGRPFMVGAISRVINNADLLYGKAKELYEANKDLLKGTNPFANNLAQALEIVYFIERAIDLLDEALAKWPIKPRDEVEIKDGFGVSTTEAPRGILVYALKVENGRVSYADIITPTAFNLAMMEEHVRMMAEKHYNDDPERLKILAEMVVRAYDPCISCSVHVVRL | soluble |
| AHHHHHHGSLCEEKLEVFENGFKDDKHNIEIHVYGGDGRKVLLALIYELYSPEYGSEYVYPFECAKEFWGIYLDSSEVKGEEAELKPLKFISESVKSKIEKELEDIKAPIEVELEKSTIYKVKDGYIVLGKNFLLDHKGRLFVFNKPQVGEIILKYIWKW | soluble |
| AHHHHHHGSLSERMLKALNDQLNRELYSAYLYFAMAAYFEDLGLEGFANWMKAQAEEEIGHALRFYNYIYDRNGRVELDEIPKPPKEWESPLKAFEAAYEHEKFISKSIYELAALAEEEKDYSTRAFLEWFINEQVEEEASVKKILDKLKFAKDSPQILFMLDKELSARAPKLPGLLMQGGE | not soluble |
| AHHHHHHGSVERKKWSENFSEWFNEVIEEAGILDKRYPVKGMNVWLPYGLKIMKNIEKFIHEEMERTDHQEVLFPALIPETEFQKEAEHIAGFEGEVFWVTHAGHEPLDVRLVLRPTSETAMYSMFALWIRSHADLPFKVYQIVNVYRYETKHTRPLIRVREISRFFEAHTAHADFEDAERQIKEDLEIFDNLMKKLAIAYVISKRPEWDKFPGAYYSLGAEVVMPDGRTLQIGTMHNYKQNFAKAYNILYEKEDGTHDYVHQTTFGMSERLLAAVIAIHGDDRGMVLPPTIAPIQVVIVPIPKKGSEEEVYSYAREIEEELKLAGIRVHLDLRDKRPGWKFYDWELKGVPVRIEVGPRDAAEKTVVLARRDKLEKITVSREELVDKVRELFDDIMQYLYERAKEWLESHIKRVDTIEEAKELFNDRRGIVEIPWCGEEECGLKMEEELEAKMLGIPYPEESARVEGKKCPVCGREAKFIARFARTY | not soluble |

— the DeepSol protein solubility set
